# According to article PMC4012616:
# Key:
# Experiment in all cases: MST
# [1] = biological target: H3K9me3 MLA (Methyl Lysine Analog) histone H3 (UniProt P84233)
# [2] = biological target: H3K9me2 MLA (Methyl Lysine Analog) histone H3 (UniProt P84233)
# [3] = biological target: H3K9me1 MLA (Methyl Lysine Analog) histone H3 (UniProt P84233)
substance,measurement,setting,value
EAP-1 chromodomain fused to GST (EAP-1chromo) (domain or fragment),Kd,[1],157 nM
same,Kd,[2],2050 nM
same,Kd,[3],6.14 µM
